What was measured:
Assay in all cases: IEDB peptide-MHC binding, purified MHC/competitive/radioactivity; filed as Kd, often an IC50 or EC50 that approximates it; ≥ and ≤ were set here for values at or beyond the usual limits of such assays
HLA-A*02:02 = biological target: HLA-A*02:02
HLA-A*02:06 = biological target: HLA-A*02:06
HLA-A*02:03 = biological target: HLA-A*02:03
HLA-A*33:01 = biological target: HLA-A*33:01
HLA-A*68:01 = biological target: HLA-A*68:01
HLA-A*11:01 = biological target: HLA-A*11:01
HLA-A*03:01 = biological target: HLA-A*03:01
HLA-A*31:01 = biological target: HLA-A*31:01
[1] = source organism: Vaccinia virus WR
[2] = source organism: SARS coronavirus Tor2
[3] = source organism: Mammarenavirus brazilense
[4] = source organism: Lymphocytic choriomeningitis virus (strain WE)

Sequence | Kd (HLA-A*33:01; [1]) [nM] | Kd (HLA-A*68:01; [1]) [nM] | Kd (HLA-A*11:01; [1]) [nM] | Kd (HLA-A*03:01; [1]) [nM] | Kd (HLA-A*31:01; [1]) [nM] | other results
FTNSQIFNI |  |  |  |  |  | Kd (HLA-A*02:02; [1]): 6.89 nM; Kd (HLA-A*02:06; [1]): 4.79 nM; Kd (HLA-A*02:03; [1]): 7.11 nM
ETKRNIARHL |  |  |  |  |  | Kd (HLA-A*02:02; [1]): ≥ 50000 nM; Kd (HLA-A*02:06; [1]): ≥ 69800 nM; Kd (HLA-A*02:03; [1]): 12400 nM
MLFTKFFYL |  |  |  |  |  | Kd (HLA-A*02:02; [2]): 0.0849 nM; Kd (HLA-A*02:06; [2]): 1.43 nM; Kd (HLA-A*02:03; [2]): 17.2 nM
AQFLYLYAL |  |  |  |  |  | Kd (HLA-A*02:02; [2]): 0.92 nM; Kd (HLA-A*02:06; [2]): 0.346 nM; Kd (HLA-A*02:03; [2]): 6.23 nM
KISVEKIKQT |  |  |  |  |  | Kd (HLA-A*02:02; [1]): 1230 nM; Kd (HLA-A*02:06; [1]): ≥ 21000 nM; Kd (HLA-A*02:03; [1]): 8960 nM
LITLILSNKL |  |  |  |  |  | Kd (HLA-A*02:02; [1]): 225 nM; Kd (HLA-A*02:06; [1]): 633 nM; Kd (HLA-A*02:03; [1]): 293 nM
HAKYMVTDKT |  |  |  |  |  | Kd (HLA-A*02:02; [1]): 9030 nM; Kd (HLA-A*02:06; [1]): ≥ 65100 nM; Kd (HLA-A*02:03; [1]): ≥ 35000 nM
NLAPHLLLIV |  |  |  |  |  | Kd (HLA-A*02:02; [2]): 5.1 nM; Kd (HLA-A*02:06; [2]): 125 nM; Kd (HLA-A*02:03; [2]): 1.07 nM
LLPLTSLVIT |  |  |  |  |  | Kd (HLA-A*02:02; [1]): 999 nM; Kd (HLA-A*02:06; [1]): 1610 nM; Kd (HLA-A*02:03; [1]): 1320 nM
IVSKCIVQSV |  |  |  |  |  | Kd (HLA-A*02:02; [1]): 123 nM; Kd (HLA-A*02:06; [1]): 552 nM; Kd (HLA-A*02:03; [1]): 30.8 nM
ALTDVEKRI |  |  |  |  |  | Kd (HLA-A*02:02; [1]): 74.2 nM; Kd (HLA-A*02:06; [1]): 14400 nM; Kd (HLA-A*02:03; [1]): 1490 nM
NTIAVITETI |  |  |  |  |  | Kd (HLA-A*02:02; [1]): 50.2 nM; Kd (HLA-A*02:06; [1]): 784 nM; Kd (HLA-A*02:03; [1]): 56.3 nM
ELAAHQKKI |  |  |  |  |  | Kd (HLA-A*02:03; source organism: Homo sapiens): 2650 nM
LLALGCYSQV |  |  |  |  |  | Kd (HLA-A*02:03; source organism: Dengue virus 1 Brazil/97-11/1997): 12.7 nM
LIPVSEVLLK | ≥ 70000 | 1210 | 609 | 5230 | ≥ 70000 | 
TVCTVCGMWK |  |  |  |  |  | Kd (HLA-A*33:01; [2]): 587 nM; Kd (HLA-A*68:01; [2]): 52.2 nM; Kd (HLA-A*11:01; [2]): 5.49 nM; Kd (HLA-A*03:01; [2]): 24 nM; Kd (HLA-A*31:01; [2]): 188 nM
SCMVNHSTYY |  |  |  |  |  | Kd (HLA-A*33:01; [3]): 8990 nM; Kd (HLA-A*68:01; [3]): 15900 nM; Kd (HLA-A*11:01; [3]): 16700 nM; Kd (HLA-A*03:01; [3]): 100 nM; Kd (HLA-A*31:01; [3]): 7410 nM
LLKYAGLTIK | 14500 | 3150 | 162 | 10.7 | 1610 | 
AIITPVVFY | ≥ 45500 | 1470 | 0.362 | 409 | ≥ 10000 | 
QSQMLLIVLK |  |  |  |  |  | Kd (HLA-A*33:01; [2]): 11700 nM; Kd (HLA-A*68:01; [2]): 207 nM; Kd (HLA-A*11:01; [2]): 10.8 nM; Kd (HLA-A*03:01; [2]): 1620 nM; Kd (HLA-A*31:01; [2]): 1410 nM

Sequence | Kd (HLA-A*33:01; [1]) [nM] | Kd (HLA-A*68:01; [1]) [nM] | Kd (HLA-A*11:01; [1]) [nM] | Kd (HLA-A*03:01; [1]) [nM] | Kd (HLA-A*31:01; [1]) [nM] | other results
NIRLTDTEYR | 157 | 1.39 | 17500 | ≥ 70100 | 59 | 
AVRAFLLRHY | ≥ 70000 | ≥ 29500 | 1070 | 862 | 5240 | 
DLTALLSCIR | 76.8 | 10.9 | 1560 | 13200 | 510 | 
FITKEIKNR | 6040 | 276 | ≥ 77900 | ≥ 78000 | 3590 | 
ELQSVLVTTY | ≥ 61800 | 1480 | 603 | 2000 | 16100 | 
AATIQTPTK | 1260 | 1670 | 9.51 | 4120 | 137 | 
WIKNLETYTR | 1130 | 38.1 | 6310 | ≥ 40900 | 361 | 
PMPYMISTY | ≥ 77700 | 1340 | ≥ 42100 | ≥ 45300 | ≥ 34900 | 
ELESLSKRER | 12600 | 388 | 4230 | ≥ 70100 | 3450 | 
TLVPVLEKK | 14000 | 117 | 15.9 | 237 | 332 | 
SAYLISIFLH |  |  |  |  |  | Kd (HLA-A*33:01; [4]): 874 nM; Kd (HLA-A*68:01; [4]): ≥ 30900 nM; Kd (HLA-A*11:01; [4]): 5450 nM; Kd (HLA-A*03:01; [4]): 668 nM; Kd (HLA-A*31:01; [4]): 250 nM
STCMMCYKR |  |  |  |  |  | Kd (HLA-A*33:01; [2]): 24.5 nM; Kd (HLA-A*68:01; [2]): 17.8 nM; Kd (HLA-A*11:01; [2]): 9.05 nM; Kd (HLA-A*03:01; [2]): 2250 nM; Kd (HLA-A*31:01; [2]): 5.01 nM
GLFGKGGVV |  |  |  |  |  | Kd (HLA-A*02:03; source organism: Dengue virus 4 Philippines/H241/1956): 9.95 nM
FSAGAGVLDK | 350 | 15 | 225 | 452 | 575 | 
TQYNRYLALY |  |  |  |  |  | Kd (HLA-A*33:01; [2]): 1610 nM; Kd (HLA-A*68:01; [2]): 99.3 nM; Kd (HLA-A*11:01; [2]): 1570 nM; Kd (HLA-A*03:01; [2]): 266 nM; Kd (HLA-A*31:01; [2]): 283 nM
PVVAAIITR |  |  |  |  |  | Kd (HLA-A*33:01; [2]): 7790 nM; Kd (HLA-A*68:01; [2]): 269 nM; Kd (HLA-A*11:01; [2]): 1790 nM; Kd (HLA-A*03:01; [2]): 11200 nM; Kd (HLA-A*31:01; [2]): 1240 nM
AVMYMGTLSY |  |  |  |  |  | Kd (HLA-A*33:01; [2]): 10800 nM; Kd (HLA-A*68:01; [2]): 2580 nM; Kd (HLA-A*11:01; [2]): 7.78 nM; Kd (HLA-A*03:01; [2]): 7.67 nM; Kd (HLA-A*31:01; [2]): 3200 nM
KLFKKTDFK | 13900 | 6280 | 8.86 | 8.46 | 8.08 | 
DIVNEHDIKY | ≥ 46100 | 4610 | 12600 | 7030 | ≥ 37200 | 

— the Immune Epitope Database (IEDB)
